pKd: −log10 of the molar value.
What was measured:
[1] = biological target: Chicken gizzard tropomyosin (Tpm), purified (chicken); test: competition ELISA against 10 nM biotin-HKa on immobilized chicken gizzard Tpm, 10 uM ZnCl2; Kd by non-linear regression
[2] = biological target: Chicken gizzard tropomyosin (Tpm), purified (chicken); test: plate assays on immobilized chicken gizzard Tpm (FIGS. 14 and 15)
[3] = biological target: Chicken gizzard tropomyosin (Tpm), purified (chicken); test: competition with 10 nM biotin-HKa on plate coated with chicken gizzard Tpm, 10 µM ZnCl2
[4] = biological target: Tropomyosin (Tpm) exposed on the surface of proliferating human umbilical vein endothelial cells (human); test: biotin-HKa on unfixed subconfluent HUVEC in 96-well plates, 4 °C, with and without 10 µM Zn2+, streptavidin-peroxidase; nonlinear regression

Chain of Chicken gizzard tropomyosin (Tpm), purified (chicken) (chain, as listed by the source limits assumed): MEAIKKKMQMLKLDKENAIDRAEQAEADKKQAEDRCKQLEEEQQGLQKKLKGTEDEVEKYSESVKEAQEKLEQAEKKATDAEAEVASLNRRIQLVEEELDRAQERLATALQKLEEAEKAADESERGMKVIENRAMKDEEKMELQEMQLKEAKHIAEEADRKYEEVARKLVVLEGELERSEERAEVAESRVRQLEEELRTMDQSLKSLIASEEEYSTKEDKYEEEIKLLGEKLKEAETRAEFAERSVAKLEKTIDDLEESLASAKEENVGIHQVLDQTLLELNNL
Chain of Endostatin (ligand) (P39060 1572-1754): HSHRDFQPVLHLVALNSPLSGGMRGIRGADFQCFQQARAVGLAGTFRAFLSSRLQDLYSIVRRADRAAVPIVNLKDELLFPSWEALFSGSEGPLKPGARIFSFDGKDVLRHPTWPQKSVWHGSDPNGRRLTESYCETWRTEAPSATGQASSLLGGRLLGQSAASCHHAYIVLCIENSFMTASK

pKd [1]	fold lower affinity than HKa or HKa-D5 [2]	pKd [3]	pKd [4]	Substance
5.71	1000 fold	5.70		Endostatin (ligand)
			8.60	Two-chain high molecular weight kininogen (HKa) (from UniProt P01042 19-380; P01042 390-644) (ligand)
